As usually defined, the Kd is a measure of binding affinity in units of concentration. A high value points to lower affinity.

Positions count from the first letter of the chain named. Read-outs that look alike come from different tables or passages of the source.

Holding throughout (assay): fluorescence anisotropy
Background: In fluorescence polarisation assays a small probe gives low polarisation when free and higher when bound to something large.

In series [1] the target is T1, rGyr_fl Y851F (full-length reverse gyrase) (Thermotoga maritima, UniProt O51934 1-1104, Y851F).
T1 sequence: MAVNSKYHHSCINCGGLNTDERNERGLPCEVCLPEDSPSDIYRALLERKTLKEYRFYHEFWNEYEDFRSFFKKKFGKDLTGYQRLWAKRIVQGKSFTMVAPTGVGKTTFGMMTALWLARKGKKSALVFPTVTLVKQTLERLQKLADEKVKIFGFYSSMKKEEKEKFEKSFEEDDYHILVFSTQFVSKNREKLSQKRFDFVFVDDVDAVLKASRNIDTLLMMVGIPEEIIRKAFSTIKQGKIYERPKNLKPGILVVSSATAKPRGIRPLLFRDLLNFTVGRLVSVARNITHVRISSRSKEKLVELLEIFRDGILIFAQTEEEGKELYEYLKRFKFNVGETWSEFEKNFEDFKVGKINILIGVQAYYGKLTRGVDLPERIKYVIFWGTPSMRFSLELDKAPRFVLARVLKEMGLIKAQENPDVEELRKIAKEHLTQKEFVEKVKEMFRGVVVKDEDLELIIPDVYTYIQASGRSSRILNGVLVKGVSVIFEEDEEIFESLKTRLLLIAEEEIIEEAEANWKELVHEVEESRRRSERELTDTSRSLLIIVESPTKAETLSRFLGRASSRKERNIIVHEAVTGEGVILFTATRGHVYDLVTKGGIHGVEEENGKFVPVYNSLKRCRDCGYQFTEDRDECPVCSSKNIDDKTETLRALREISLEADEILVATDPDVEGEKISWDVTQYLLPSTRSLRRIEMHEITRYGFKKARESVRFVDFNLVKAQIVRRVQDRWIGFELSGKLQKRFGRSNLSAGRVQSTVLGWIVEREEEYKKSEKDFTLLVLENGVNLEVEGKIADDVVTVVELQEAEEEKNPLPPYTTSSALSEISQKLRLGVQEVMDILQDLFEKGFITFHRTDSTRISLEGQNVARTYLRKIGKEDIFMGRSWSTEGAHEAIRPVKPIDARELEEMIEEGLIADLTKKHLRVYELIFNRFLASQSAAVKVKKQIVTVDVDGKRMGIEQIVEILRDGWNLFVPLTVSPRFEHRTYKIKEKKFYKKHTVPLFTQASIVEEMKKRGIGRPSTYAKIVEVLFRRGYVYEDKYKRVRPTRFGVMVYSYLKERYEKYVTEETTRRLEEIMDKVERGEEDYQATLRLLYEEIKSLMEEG

The target in series [2] is T2, rGyr_hel K106Q (Thermotoga maritima, UniProt O51934 59-541, K106Q).
T2 sequence: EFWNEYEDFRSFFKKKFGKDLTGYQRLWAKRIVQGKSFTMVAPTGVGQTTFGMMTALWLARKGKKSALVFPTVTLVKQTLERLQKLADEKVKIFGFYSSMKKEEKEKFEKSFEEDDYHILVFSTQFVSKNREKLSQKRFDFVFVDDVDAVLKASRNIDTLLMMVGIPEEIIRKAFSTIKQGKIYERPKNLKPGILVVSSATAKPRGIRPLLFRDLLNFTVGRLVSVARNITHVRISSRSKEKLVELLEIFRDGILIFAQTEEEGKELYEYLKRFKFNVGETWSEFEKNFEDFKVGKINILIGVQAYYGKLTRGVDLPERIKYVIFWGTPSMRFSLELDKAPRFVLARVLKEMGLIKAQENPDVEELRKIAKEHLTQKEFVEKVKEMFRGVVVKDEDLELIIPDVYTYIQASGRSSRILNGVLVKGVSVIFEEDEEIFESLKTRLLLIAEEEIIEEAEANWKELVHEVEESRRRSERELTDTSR

For series [3], the target named is T1, rGyr_fl Y851F (full-length reverse …). The source holds these as a separate data set.
The target is the same in series [4]. The source holds these as a separate data set.
The target of series [5] is T2, rGyr_hel K106Q. This is another data set of the same source.
For series [6], the target named is T3, rGyr_hel (reverse gyrase helicase-like domain) (Thermotoga maritima, UniProt O51934 59-541).
T3 sequence: T2 sequence with Q48K

B1: 60-base ssDNA (ssDNA)
DNA: AAGCCAAGCTTCTAGAGTCAGCCCGTGATATTCATTACTTCTTATCCTAGGATCCCCGTT
Regarding B1, the Kd in series [1] was found to be 35 ± 5 nM; with rGyr_hel K106Q [2], 180 ± 30 nM; in series [3], 60 ± 15 nM; in series [4], 41 ± 9 nM; with rGyr_hel K106Q [5], 250 ± 30 nM; in series [6] it was 1200 ± 200 nM.

B2: 60 bp dsDNA (dsDNA)
DNA 1: B1 DNA
DNA 2: AACGGGGATCCTAGGATAAGAAGTAATGAATATCACGGGCTGACTCTAGAAGCTTGGCTT
Regarding B2, the Kd worked out at 490 ± 60 nM in series [1]; 3800 ± 600 nM with rGyr_hel K106Q [2]; 250 ± 40 nM in series [3]; 330 ± 70 nM in series [4]; 2900 ± 600 nM with rGyr_hel K106Q [5]; 1000 ± 100 nM in series [6].

The record behind these values is article PMC2566858 (Nucleic Acids Research, 2008).
